In the experiment the target is SARS-CoV-2 Spike receptor binding domain (SpikeRBD, aa 328-533) (SARS-CoV-2, UniProt P0DTC2 328-533). Put plainly: BLI on immobilised biotinylated Spike-RBD.

B1: C004 IgG (antibody, V domains shown)
VH: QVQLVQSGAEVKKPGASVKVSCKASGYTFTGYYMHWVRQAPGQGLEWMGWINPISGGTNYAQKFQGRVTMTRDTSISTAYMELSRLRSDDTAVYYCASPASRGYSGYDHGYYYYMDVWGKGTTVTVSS
VL: AIRMTQSPSSLSASVGDRVTITCQASQDISNYLNWYQQKPGKAPKLLIYDASNLETGVPSRFSGSGSGTDFTFTISSLQPEDIATYYCQQYDNLPITFGQGTRLEIKR
notes: also called recombinant anti-S-RBD antibody C004
For the molecule B1, the binding result was “binds”.

B2: C105 IgG (antibody, V domains shown)
VH: QVQLVESGGGLIQPGGSLRLSCAASGFTVSSNYMSWVRQAPGKGLEWVSVIYSGGSTYYADSVKGRFTISRDNSKNTLYLQMNSLRAEDTAVYYCARGEGWELPYDYWGQGTLVTVSS
VL: QSALTQPPSASGSPGQSVTISCTGTSSDVGGYKYVSWYQQHPGKAPKLMIYEVSKRPSGVPDRFSGSKSGNTASLTVSGLQAEDEADYYCSSYEGSNNFVVFGGGTKLTVLG
With B2, the binding result is recorded as “binds”.

The values above are taken from patent US20230296621A1 (CHAN ZUCKERBERG BIOHUB, published 2023).
